Assay results published in patent US20160137696A1 (Bristol-Myers Squibb, published 2016).
Starred links: 1 amine or outer side, 2 acyl side, 3 side chain; linkers in the order of their positions; H or OH if unused. Positions of bridges follow the written chain, without caps; N, C: chain ends. Non-standard residues stand in square brackets, D forms with d. Groups on a side chain read outwards from the residue. Primed or numbered codes have the meaning given here. No end group written: not given here. *: point of attachment. PEG8′ = PEG8 unit (23-azido-3,6,9,12,15,18,21-heptaoxatricosyl, i.e. an eight-unit PEG spacer) linking the triazole to vitamin E succinate; Pra′ = propargylglycine (built in as LPH), clicked to a 1-substituted triazol-4-yl-alanine, O=C([C@H](Cc1cn([*:3])nn1)N[*:1])[*:2]; PEG6′ = PEG6 spacer (17-azido-3,6,9,12,15-pentaoxaheptadecyl) linking the triazole to vitamin E succinate; X1 = (S)‑3‑carboxy‑3‑(15-carboxypentadecanoylamino)propyl, O=C(O)CCCCCCCCCCCCCCC(=O)N[C@@H](CC*)C(=O)O; Pra″ = its azide, alkyne or alkene has reacted where a group follows in round brackets; X2 = (S)‑3‑carboxy‑3‑palmitamidopropyl, CCCCCCCCCCCCCCCC(=O)N[C@@H](CC*)C(=O)O; Pra(3) = propargylglycine, clicked to an azide to give a triazolyl-alanine; triazole = 1,2,3-triazole formed by click of the Pra alkyne with the azide; Trp(1-CH2CO) = O=C([C@H](Cc1cn(CC(=O)[*:3])c2ccccc12)N[*:1])[*:2]; Phe(3,4,5-F3) = N[C@@H](Cc1cc(F)c(F)c(F)c1)C(=O)O; Biotin = O=C1N[C@H]2[C@H](CS[C@H]2CCCCC(=O)*)N1; C18 diacid = O=C(O)CCCCCCCCCCCCCCCCC(=O)*; Phe(4-F) = N[C@@H](Cc1ccc(F)cc1)C(=O)O; γGlu = O=C(O)[C@H](CCC(=O)[*:2])N[*:1]; Palmitoyl = CCCCCCCCCCCCCCCC(=O)*; Hyp = O=C(O)[C@@H]1C[C@@H](O)CN1; NMeF = CN[C@@H](Cc1ccccc1)C(=O)O; NMeE = CN[C@@H](CCC(=O)O)C(=O)O; dHyp = O=C(O)[C@H]1C[C@H](O)CN1; NMeNle = CCCC[C@H](NC)C(=O)O; Suc = O=C(CCC(=O)[*:2])[*:1]; triazole″ = not defined here; Pip = O=C(O)[C@@H]1CCCCN1; NMeA = CN[C@@H](C)C(=O)O; Orn = NCCC[C@H](N)C(=O)O; PEG4′ = not defined here; PEG7′ = not defined here; Pra = C#CC[C@H](N)C(=O)O; Dab = NCC[C@H](N)C(=O)O; Dap = NC[C@H](N)C(=O)O; Sar = CNCC(=O)O

B1: Example 14088 (peptide)
peptide: FFXPDVFDPWYLCGX
modifications: as m17 (INT 1400L); Pra triazole-linked to vitamin E succinate 5-azidopentylamide
B2: Example 14084 (peptide)
peptide: {CH2CO}-[Phe(3,4,5-F3)][NMeF][NMeNle][dHyp]DV[NMeF]D[dP]WYLCG[Pra″]([triazole-(S)‑3‑carboxy‑3‑aminopropyl-Palmitoyl])
modifications: thioether N-13; not fully specified; printed as ClAc-F3Phe-mPhe-mNle-dHyp-Asp-Val-mPhe-Asp-dPro-Trp-Tyr-Leu-Cys-Gly-[(S)-propargylglycine]
B3: INT-1400J (peptide)
peptide: {CH2CO}-Y[NMeA]DPHK[Hyp]WK[Trp(1-CH2CO)][NMeNle][NMeNle]ECG[Pra]
modifications: thioether N-14; not fully specified (C-terminus); printed as ClAc-Tyr-mAla-Asp-Pro-His-Lys-Hyp-Trp-Lys-Trp(1-carboxymethyl)-mNle-mNle-Glu-Cys-Gly-[(S)-propargylglycine], cyclised ClAc-Cys
notes: also called Intermediate 1400J
B4: Example 14051 (peptide)
peptide: YADPHKPWKWXXECGXG
modifications: as m106 (INT 1400A); Pra triazole-linked to vitamin E succinate 5-azidopentylamide
B5: Example 14087 (peptide)
peptide: FFXPDVFXPWYLCGX
modifications: as m16 (INT 1400K); Pra triazole-linked to vitamin E succinate 5-azidopentylamide
B6: Example 14054 (peptide)
peptide: YADPHQPWSWXXECGXG
modifications: as m108 (INT 1400C); Pra triazole-linked to vitamin E succinate 5-azidopentylamide

These binders were tested against T1, Recombinant Human PD-L1-TVMV-His (human, UniProt Q9NZQ7 19-239) (assay: HTRF vs PD-1-Ig).
T1 construct: expressed in HEK293T cells; also called PD-L1-His; hPD-L1(19-239)-TVMV-His
Method: (§1) Homogenous Time-Resolved Fluorescence (HTRF) Assays of Binding of Soluble PD-1 to Soluble PD-L1. Soluble PD-1 and soluble PD-L1 refers to proteins with carboxyl-end truncations that remove the transmembrane-spanning regions and are fused to heterologous sequences, specifically the Fc portion of the human immunoglobuling G sequence (Ig) or the hexahistidine epitope tag (His). All binding studies were performed in an HTRF assay buffer consisting of dPBS supplemented with 0.1% (w/v) bovine serum albumin and 0.05% (v/v) Tween-20. For the PD-1-Ig/PD-L1-His binding assay, inhibitors were pre-incubated with PD-L1-His (10 nM final) for 15 m in 4 μl of assay buffer, followed by addition of PD-1-Ig (20 nM final) in 1 μl of assay buffer and further incubation for 15 m. PD-L1 fusion proteins from either human, cynomologous macaques, mouse, or other species were used. HTRF detection was achieved using europium crypate-labeled anti-Ig monoclonal antibody (1 nM final) and allophycocyanin (APC) labeled anti-His monoclonal antibody (20 nM final). Antibodies were diluted in HTRF detection buffer and 5 μl was dispensed on top of binding reaction. The reaction was allowed to equilibrate for 30 minutes and signal (665 nm/620 nm ratio) was obtained using an EnVision fluorometer. Additional binding assays were established between PD-I-Ig/PD-L2-His (20 and 5 nM, respectively), CD80-His/PD-L1-Ig (100 and 10 nM, respectively) and CD80-His/CTLA4-Ig (10 and 5 nM, respectively). Binding/competition studies between biotinylated Compound No. 71 and human PD-L1-His were performed as follows. Macrocyclic peptide inhibitors were pre-incubated with PD-L1-His (10 nM final) for 60 minutes in 4 μl of assay buffer followed by addition of biotinylated Compound No. 71 (0.5 nM final) in 1 μl of assay buffer. Binding was allowed to equilibrate for 30 minutes followed by addition of europium crypated labeled Streptavidin (2.5 pM final) and APC-labeled anti-His (20 nM final) in 5 μl of HTRF buffer. The reaction was allowed to equilibrate for 30 m and signal (665 nm/620 nm ratio) was obtained using an EnVision fluorometer.

T1 sequence (Q9NZQ7 other isoform, or with tags, fused parts or gaps limits assumed): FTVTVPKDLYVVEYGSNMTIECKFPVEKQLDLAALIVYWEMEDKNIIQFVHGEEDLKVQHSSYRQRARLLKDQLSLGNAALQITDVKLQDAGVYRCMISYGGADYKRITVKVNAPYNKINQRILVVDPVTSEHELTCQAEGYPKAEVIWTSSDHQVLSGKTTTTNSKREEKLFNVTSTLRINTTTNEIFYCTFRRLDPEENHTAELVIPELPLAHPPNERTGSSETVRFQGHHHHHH

Question: With {CH2CO}-Y[NMeA]NP[Dap]L[Hyp]W[Dab][Trp(1-CH2CO)][NMeNle][NMeNle]LCGG[Pra″]([triazole-PEG7′-γGlu-C18 diacid]) (thioether N-14 (inferred)) [Example 13123] as the binder, how does the IC50 read?
Answer: 150 nM

Question: How did the IC50 turn out when {CH2CO}-[Phe(4-F)][Pip]DP[Dap]L[Hyp]W[Dab][Trp(1-CH2CO)][NMeNle][NMeNle]LCG[Dab]([γGlu-C18 diacid]) (thioether N-14 (inferred)) [Example 13150] was run?
Answer: 20.9 nM

Question: How did the IC50 turn out when {CH2CO}-Y[NMeA]DPHK[Hyp]WK[Trp(1-CH2CO)][NMeNle][NMeNle]ECG[Pra′]([triazole-X2]) (thioether N-14) [Example 14072] was run?
Answer: 8.5 nM

Question: {CH2CO}-F[NMeF][NMeNle][Sar]DV[NMeF]Y[NMeE]WYLCGGGK([PEG4‑propionyl-Biotin])-NH2 (thioether N-13) [Example 3620] was tested. Which IC50 did it give?
Answer: 9 nM

Question: For {CH2CO}-Y[NMeA]DPHQ[Hyp]WSW[NMeNle][NMeNle]ECG[Pra(3)]([triazole″-PEG8′-Suc-vitamin E])G (thioether N-14; reading uncertain) [Example 14055], which IC50 is on record?
Answer: 388 nM

Question: Which IC50 does the source give for B1 here?
Answer: 799 nM

Question: For {CH2CO}-Y[NMeA]DPHK[Hyp]WK[Trp(1-CH2CO)][NMeNle][NMeNle]ECG[Pra′]([triazole-X1]) (thioether N-14) [Example 14078], which IC50 is on record?
Answer: 10.8 nM

Question: Which IC50 does the source give for B2 here?
Answer: 627 nM

Question: B3 was tested. Which IC50 did it give?
Answer: 8.8 nM

Question: How did the IC50 turn out when {CH2CO}-Y[NMeA]DPHK[Hyp]WKW[NMeNle][NMeNle]ECG[Pra′]([triazole-X1]) (thioether N-14) [Example 14067] was run?
Answer: 10.4 nM

What follows are binders tested against T1, Recombinant Human PD-L1-TVMV-His (assay: HTRF vs PD-1-Ig; B = IC50 0.01-0.099 µM).
Method: as §1

Question: Which IC50 does the source give for {CH2CO}-Y[NMeA]DPHK[Hyp]WK[Trp(1-CH2CO)][NMeNle][NMeNle]ECG[Pra′]([triazole-X1]) (thioether N-14) [Example 14078] here?
Answer: 10 to 99 nM

Each binder was assayed against T1, Recombinant Human PD-L1-TVMV-His (assay: HTRF vs PD-1-Ig; A = IC50 0.10-1.6 µM).
Method: as §1

Question: With B4 as the binder, how does the IC50 read?
Answer: 100 to 1600 nM

Question: Which IC50 does the source give for B5 here?
Answer: 100 to 1600 nM

Question: With {CH2CO}-[Phe(3,4,5-F3)][NMeF][NMeNle][dP]DV[NMeF][Orn][dP]WYLCG[Pra′]([triazole-X2]) (thioether N-13) [Example 14081] as the binder, how does the IC50 read?
Answer: 100 to 1600 nM

Question: With B6 as the binder, how does the IC50 read?
Answer: 100 to 1600 nM

Question: For {CH2CO}-Y[NMeA]DPHK[Hyp]WKW[NMeNle][NMeNle]ECG[Pra(3)]([triazole″-PEG4′-Suc-vitamin E])G (thioether N-14; reading uncertain) [Example 14060], which IC50 is on record?
Answer: 100 to 1600 nM

Question: Which IC50 does the source give for {CH2CO}-Y[NMeA]DPHK[Hyp]WKW[NMeNle][NMeNle]ECG[Pra(3)]([triazole″-PEG6′-Suc-vitamin E])G (thioether N-14; reading uncertain) [Example 14053] here?
Answer: 100 to 1600 nM

Question: With {CH2CO}-Y[NMeA]NP[Dap]L[Hyp]W[Dab][Trp(1-CH2CO)][NMeNle][NMeNle]LCGG[Pra″]([triazole-(S)‑4‑azido‑2‑palmitamidobutanoic acid]) (thioether N-14 (inferred)) [Example 13122] as the binder, how does the IC50 read?
Answer: 100 to 1600 nM
